Laboratory results from patent US9371520B2.

Target: purified native cellulosome of C. thermocellum ATCC 27405 (C. thermocellum ATCC 27405) (UniProt Q06851)

| Substance | hydrolysis of microcrystalline cellulose and pre-treated switchgrass (soluble reducing sugars) |
| --- | --- |
| BglA-CohII (chimaeric C. thermocellum β-glucosidase A fused to the type-II cohesin module of the Orf2p anchoring protein) (enzyme) | 2.68 fold |
| wild-type (WT) BglA, β-glucosidase A from C. thermocellum, as cloned (enzyme) | 2.06 fold |
